Data taken from publication PMC3663649, “Nucleosomal DNA binding drives the recognition of H3K36-methylated nucleosomes by the PSIP1-PWWP domain” (Epigenetics & Chromatin, 2013).
Where two headings read alike, the source gives them in different places. Blank lines part the entries; values can stand above or below the substance they belong to.

What was measured:
[1] = molecular target: H3KC36me3 nucleosomes (recombinant MLA nucleosomes reconstituted on 601 DNA) (Drosophila) (UniProt P02299); experiment: native gel or EMSA; 1.5 or 3 pmol reconstituted nucleosome with 0, 0.5, 1, 2 and 3 molar equivalents of glutathione agarose purified GST-PWWP protein; 0.2X TBE, 4°C, native 5% gel, ethidium bromide; band densities fitted to a 2:1 model
PSIP1-PWWP (human) [2] = experiment: NMR methyl-TROSY line shape fit; conditions: 308 K; 1:2 nucleosome:PWWP model; koff 500 s-1; histone H3KC36me3 (methyl-lysine analogue); EMSA: 0.2X TBE, 4 C, 1.5 or 3 pmol nucleosome in 8 uL, up to 3 molar equivalents of protein, native 5% gel; NMR: 293 K (DNA titration), 308 K (nucleosome …)
GST-PSIP1-PWWP (human) = experiment: EMSA; conditions: histone H3KC36me3 (methyl-lysine analogue); EMSA: 0.2X TBE, 4 C, 1.5 or 3 pmol nucleosome in 8 uL, up to 3 molar equivalents of protein, native 5% gel; NMR: 293 K (DNA titration), 308 K (nucleosome …)
[3] = molecular target: PSIP1-PWWP domain (residues 3 to 100, GST removed by thrombin) (human) (UniProt O75475); experiment: NMR titration; 1H-15N HSQC of 0.3 mM PWWP, peptide added; 20 mM NaPi pH 7.0, 100 mM NaCl, 293 K, 600 MHz; chemical shift perturbation curves fitted in fast exchange
[4] = molecular target: H3KC36me3 nucleosomes (recombinant MLA nucleosomes reconstituted on 601 DNA) (Drosophila) (UniProt P02299)
PSIP1-PWWP (human) [5] = experiment: NMR titration (1H-15N HSQC CSP); conditions: EMSA: 0.2X TBE, 4 C, 1.5 or 3 pmol nucleosome in 8 uL, up to 3 molar equivalents of protein, native 5% gel; NMR: 293 K (DNA titration), 308 K (nucleosome …)

Sequence of PSIP1-PWWP domain (residues 3 to 100, GST removed by thrombin) (human) (O75475 3-100): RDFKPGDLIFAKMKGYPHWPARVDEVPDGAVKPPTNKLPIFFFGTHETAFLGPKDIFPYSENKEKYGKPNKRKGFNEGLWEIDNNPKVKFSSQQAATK
Sequence of PSIP1-PWWP domain (residues 3 to 100, GST removed by thrombin) (O75475 3-100): as above
Sequence of GST-PWWP (PSIP1-PWWP domain, residues 3 to 100, GST fusion) (O75475 3-100): as above

Substance: GST-PWWP (PSIP1-PWWP domain, residues 3 to 100, GST fusion) (from UniProt O75475 3-100) (domain or fragment)
- Kd [1]: 0.5 µM

Substance: H3KC36me3 MLA nucleosome on 601 DNA
- Kd (PSIP1-PWWP (human) [2]): 1.5 µM
- Kd (GST-PSIP1-PWWP (human)): 0.5 µM

- Kd [3]: 11000 µM
Substance: H3KC36me3 peptide (NMR titration)

- Kd [4]: 1.5 µM
Substance: PSIP1-PWWP domain (residues 3 to 100, GST removed by thrombin) (from UniProt O75475 3-100) (domain or fragment)

Substance: SRE-DNA dsDNA fragment
- Kd (PSIP1-PWWP (human) [5]): 150 µM
